Values quoted from earlier work in PMC2803043.

Target: Frizzled (Drosophila melanogaster) (UniProt P18537)
Chain of UniProt P18537 (P18537 19-581): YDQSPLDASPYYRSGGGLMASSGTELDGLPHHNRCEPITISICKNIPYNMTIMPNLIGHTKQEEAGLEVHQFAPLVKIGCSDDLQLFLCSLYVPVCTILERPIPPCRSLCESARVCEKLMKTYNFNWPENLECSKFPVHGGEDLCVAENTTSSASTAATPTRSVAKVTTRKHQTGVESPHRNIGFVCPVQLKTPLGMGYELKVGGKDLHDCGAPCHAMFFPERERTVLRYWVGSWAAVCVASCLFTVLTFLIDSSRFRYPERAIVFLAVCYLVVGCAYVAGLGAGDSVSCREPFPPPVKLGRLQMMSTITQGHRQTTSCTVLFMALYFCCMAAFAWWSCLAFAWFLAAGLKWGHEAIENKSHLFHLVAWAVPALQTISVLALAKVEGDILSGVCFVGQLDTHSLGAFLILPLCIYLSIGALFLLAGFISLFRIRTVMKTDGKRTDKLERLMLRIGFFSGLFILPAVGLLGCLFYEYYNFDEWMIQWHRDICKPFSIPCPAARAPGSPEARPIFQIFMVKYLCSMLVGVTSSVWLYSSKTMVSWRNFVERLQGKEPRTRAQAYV

Substance: Dishevelled PDZ (from UniProt P51140)
- Kd: 10 µM
